Measured values reported in patent publication US10780117.

Biological target: Myc-tagged CRT expressed in J774 cells
Sequence (P27797 18-417): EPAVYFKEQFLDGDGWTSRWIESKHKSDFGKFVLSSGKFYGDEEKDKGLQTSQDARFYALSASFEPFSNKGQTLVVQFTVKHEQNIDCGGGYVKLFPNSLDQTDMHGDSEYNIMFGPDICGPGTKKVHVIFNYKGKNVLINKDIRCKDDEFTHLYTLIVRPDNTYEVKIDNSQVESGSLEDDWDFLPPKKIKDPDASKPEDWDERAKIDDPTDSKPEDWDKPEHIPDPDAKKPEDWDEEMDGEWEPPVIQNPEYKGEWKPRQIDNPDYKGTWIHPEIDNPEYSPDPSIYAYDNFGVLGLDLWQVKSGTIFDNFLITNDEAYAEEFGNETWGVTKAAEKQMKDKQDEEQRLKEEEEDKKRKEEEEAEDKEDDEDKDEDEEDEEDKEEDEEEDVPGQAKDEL

B1: Bruton's tyrosine kinase (Btk) in J774 mouse macrophage cells (protein)
chain: AAVILESIFLKRSQQKKKTSPLNFKKRLFLLTVHKLSYYEYDFERGRRGSKKGSIDVEKITCVETVIPEKNPPPERQIPRRGEESSEMEQISIIERFPYPFQVVYDEGPLYVFSPTEELRKRWIHQLKNVIRYNSDLVQKYHPCFWIDGQYLCCSQTAKNAMGCQILENRNGSLKPGSSHRKTKKPLPPTPEEDQILKKPLPPEPTAAPISTTELKKVVALYDYMPMNANDLQLRKGEEYFILEESNLPWWRARDKNGQEGYIPSNYITEAEDSIEMYEWYSKHMTRSQAEQLLKQEGKEGGFIVRDSSKAGKYTVSVFAKSTGEPQGVIRHYVVCSTPQSQYYLAEKHLFSTIPELINYHQHNSAGLISRLKYPVSKQNKNAPSTAGLGYGSWEIDPKDLTFLKELGTGQFGVVKYGKWRGQYDVAIKMIREGSMSEDEFIEEAKVMMNLSHEKLVQLYGVCTKQRPIFIITEYMANGCLLNYLREMRHRFQTQQLLEMCKDVCEAMEYLESKQFLHRDLAARNCLVNDQGVVKVSDFGLSRYVLDDEYTSSVGSKFPVRWSPPEVLMYSKFSSKSDIWAFGVLMWEIYSLGKMPYERFTNSETAEHIAQGLRLYRPHLASERVYTIMYSCWHEKADERPSFKILLSNILDVMDEES
tyrosine phosphorylation of immunoprecipitated myc-CRT (immunoblot with anti-phosphotyrosine antibody): Immunoblot showing CRT phosphorylation upon Btk activation
